# B1: loxBTR-5-zif (A) (dsDNA)
# DNA 1: AGCGTGGGCGTACTGAACCCACTGCTTAAGCCTCAATAAAGCTTGCCTTCAGTACGCCCACGCT
# DNA 2: AGCGTGGGCGTACTGAAGGCAAGCTTTATTGAGGCTTAAGCAGTGGGTTCAGTACGCCCACGCT
# Target: Brec1-Zif268 (aa278) Rmut (synthetic)
# Assay: cell_activity; 100 ug/ml L-arabinose, E. coli
# Conditions: tags: G-to-R in right linker
# Brec1-Zif268 (aa278) Rmut (synthetic), sequence (chain, as listed by the source): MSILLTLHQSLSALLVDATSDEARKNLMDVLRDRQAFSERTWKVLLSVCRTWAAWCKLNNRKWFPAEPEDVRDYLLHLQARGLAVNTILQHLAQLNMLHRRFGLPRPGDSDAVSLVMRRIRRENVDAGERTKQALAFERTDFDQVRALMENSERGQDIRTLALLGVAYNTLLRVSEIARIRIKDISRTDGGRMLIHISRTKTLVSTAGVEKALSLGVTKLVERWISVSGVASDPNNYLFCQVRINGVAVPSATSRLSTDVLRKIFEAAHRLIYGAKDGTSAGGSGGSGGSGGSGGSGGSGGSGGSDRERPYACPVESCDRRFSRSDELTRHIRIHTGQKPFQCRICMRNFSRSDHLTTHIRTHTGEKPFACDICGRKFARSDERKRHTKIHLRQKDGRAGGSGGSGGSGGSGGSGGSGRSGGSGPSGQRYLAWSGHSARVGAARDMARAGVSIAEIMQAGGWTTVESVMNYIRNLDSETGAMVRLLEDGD
binder,measurement,value
B1,binding signal,2.5 fold vs Brec1-Zif268

# — US20250145973, “CONDITIONED DNA MODIFYING ENZYME COMPRISING HETEROLOGOUS DNA BINDING DOMAIN” (Technische Universität Dresden Körperschaft des …, published 2025)
